Laboratory results published in the RNAGym collection of RNA variant scans (doi:10.1073/pnas.2313332121).

B1: TPR t1 (parent)
chain: GACCAAUCUGCCCUCAGAGCUCGAGAACAUCUUCGGAUGCAGAGGAGGCAGGCUUCGGUGGCGCGAUAGCGCCAACGUCCUCAACCUCCAAUGCAUCCCACCACAUGAUGAUGCCUGAAGAGCCUUGGUUUUUUG

Variants of: B1
Test: polymerase ribozyme fitness, log enrichment relative to wild type (log ratio); higher = more active; in vitro selection for triplet polymerase activity
Method in brief: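 Mutant libraries of both subunits of a heterodimeric triplet polymerase ribozyme were PCR-built, transcribed, and selected once in triplicate, with frozen incubation at −7 °C and capture of gel-excised extended constructs on streptavidin beads before RT-PCR. Illumina sequencing of input and output libraries was filtered to genotypes with ≥10 input reads and ≥1 read per output. Fitness is the logarithm of genotype enrichment over wild-type enrichment, using inverse-variance-weighted replicate averages. The logarithm is base 2.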

Point of comparison: C8U A37U C56U A83C C97U C124A, “polymerase ribozyme fitness (log ratio)” value -1.47. Against it:
- C8G C49U G127A — higher, -1.03
- C8G C15G C72G — higher, -1.27
- C8G G36U G47A C72G U92G C115A — lower, -6.07
- C8G G58A G93U C101U A121C — higher, 0.327
- C8G A46C C97G C101A C114A U130C — lower, -6.93
- C8G G45A A84G C89U G117A — lower, -2.7
- C8G U9A G17C A95G C115A — higher, -0.322
- C8G C11U U21C U132A — higher, -0.171
- C8G C76U C82G G93A U116C — lower, -2.26
- C8G C79U U96A U130C U133G — higher, -0.147
- C8G G36U C70U — higher, 0.358
- C8G C12G — higher, 0.399
- C8G A43G G69C — lower, -3.18
- C8G A50U C53G C99U C104A C115A A121C — lower, -7
- C8G C56A U125A U133G — higher, -0.732
- C8U A91U U130A — higher, -1.26
- C8U A75U C89U A90U C99U G120A U130G U131A — lower, -4.88
- C8G A68G G71U A108G — lower, -4.73
- C8G A83G U87C C101G — within 0.2 log units, -1.58
- C8G A91C G122A — higher, -0.3
- C8G G47A C64U C97A G120U — lower, -4.09
- C8G U9C A16G A24U C28U U92C U96A C99A A111U G120C — lower, -6.18
- C8G C15U — higher, -1.19
- C8G A46G A66C A90U — lower, -4.16
- C8G C20U — higher, -1.02
- C8G C20A — within 0.2 log units, -1.49
- C8G U21C C22G G117C C123U C124A — lower, -4.09
- C8G C62A — higher, -0.27
- C8G C62U — higher, 0.179
- C8G U33G C99A C101A — lower, -5.4
- C8G A41C — within 0.2 log units, -1.28
- C8G G60U — higher, 0.698
- C8G G60A — higher, 0.62
- C8G G60C — higher, 0.0647
- C8G C49A U54C G122U — higher, 0.439
- C8G U81C — higher, 0.586
- C8G U81A — higher, 0.387
- C8G C20G G63C U109G — lower, -3.93
- C8G C12U G51A U129G — lower, -3.08
- C8G U14A A29G C40G G44U G57C — lower, -2.63
- C8G C85U C86G — higher, -0.513
- C8G G47C G60A — higher, -1.03
- C8U A68G A111C — lower, -3.15
- C8G G61A C94U C99G G117C — lower, -7.13
- C8G A74C G120C — higher, 1.98
- C8G G45A C56U C94A C101A — within 0.2 log units, -1.64
- C8G C49G — higher, 0.323
- C8G C11U G52U U81G U92C A119G U133A — lower, -5.64
- C8G G47A U130C — higher, 0.26
- C8G A41G G58C A83G G110U A121G — lower, -4.41
- C8G C12U C15U G25A A27U G42C G61A U78C U112A U125A U131A — lower, -6.3
- C8U A29U C70A U87A — lower, -2.4
- C8G C11G C20U G63C — within 0.2 log units, -1.38
- C8G C114U — higher, -0.759
- C8G G19U G48A A50U U54G C72U U92A U112A — lower, -4.04
- C8G C11U A121C U130A — higher, 1.01
- C8G C89A — higher, -1.01
- C8G A41G A83G G110U A121G — lower, -3.81
- C8G U109A — lower, -4.06
- C8G C15G C76G — higher, -1.01
- C8G G35C A90G — lower, -2.66
- C8G C11G U54C U55G C56U — within 0.2 log units, -1.33
- C8G G113A — higher, 0.074
- C8G G113C — within 0.2 log units, -1.31
- C8G C86G C114A — higher, 0.194
- C8G C62U U106A G113U — lower, -1.94
- C8G C15G C70G C114U — lower, -5.64
- C8G A46G C97U G120U U132A — higher, 1.67
- C8G U33G C72G C80U A103U G110C A121C U129C — lower, -7.86
- C8G U14A G107U — lower, -4.05
- C8G G19A A119G — higher, -1.07
- C8G A50U U54C G69U U106A G117A — higher, 0.535
- C8G G19C A75U C89G — lower, -2.29
- C8G G60U C85G A108U U131A — lower, -5.69
- C8U A105C — lower, -2.01
- C8G C123U — higher, 1.6
- C8U A43U G58A C79U G113C A118G — lower, -3.06
- C8G C56A C94U — higher, 0.74
- C8G C34A C72G C82U G110U — lower, -4.9
- C8G G42U G45A C56U — higher, -0.791
- C8G U21C G45U C49G — higher, -0.918
- C8G U14G G35C C64U C94U C124G — lower, -3.33
- C8G C22A C62U U106A — lower, -3.64
- C8G C13A A18U G51U C56A U116C — lower, -5.95
- C8G C12A G39A C85U U112A G113C — within 0.2 log units, -1.36
- C8G A37G G71A C123A U133G — higher, 1.08
- C8U A41U C97U — higher, -0.942
- C8G G60U C70U C79A U96C — lower, -4.38
- C8G C85A C124U — higher, 1.24
- C8G G69C U78G C101A — lower, -3.19
- C8U A100U — higher, -0.0529
- C8U A100C — higher, -0.899
- C8G U132A — higher, 0.53
- C8G A27U G47C — lower, -3.02
- C8G C40A C89A G120A U132A — higher, 0.693
- C8G C56A C124G — higher, 1.48
- C8G C20U C40G A90U C102U — lower, -6.69
- C8G C34U — lower, -3.12
- C8G C34G — lower, -6.45
- C8G C20U G113C — within 0.2 log units, -1.52
- C8U A18U A37C G45U C53A G113A C124U — lower, -2.69
- C8U A118G — higher, -0.114
- C8G C31U G71U G120U — lower, -3.77
- C8G C11A A50U U81C — lower, -2.29
- C8U A41U C73A — higher, -0.9
- C8G C115G — higher, 1.06
- C8G C115U — higher, -0.75
- C8G C40A C98U G127C — lower, -2.67
- C8G U14C U32C G48A G52U A95U G110A — lower, -4.18
- C8G C76U G135A — higher, -0.923
- C8G A68U G77C G120C — lower, -7.19
- C8G C15U G48C G71A C124G — higher, 0.113
- C8G G69A — within 0.2 log units, -1.5
- C8G A29U C73A G120U — higher, -0.106
- C8U A16U G36C G52U C97A — lower, -2.9
- C8G C70U A74U C98U G110A — lower, -6.03
- C8U A121G — higher, 1.42
- C8G C12A G63C — higher, 0.17
- C8G C70G A100C C123A — lower, -2.51
- C8G C49G C82G A118U — higher, 0.164
- C8G C40A C49G G52U G120C U132A — higher, 0.561
- C8G A46G C72U G110A — higher, -0.393
- C8G G42U G58C — higher, -0.604
- C8G C82A A90U U92G G117U G120C — higher, -1.01
- C8G U55G G61C — higher, -0.439
- C8G G61A C72U G128C — higher, -0.569
- C8G G36C C56A C70U U96C A119U — lower, -5
- C8U A46C G120C — higher, 1.49
- C8G C34A C40U U55A G69U C79U C98U G107U A111U G117C — lower, -6.38
- C8G A29C G48A C70U — lower, -2.95
- C8G A37U A74C C88G G110A — lower, -3.12
- C8G A27U G93U — lower, -3.29
- C8G G39U — higher, 0.57
- C8U A111G — higher, 1.25
- C8G C11G G36U — higher, 0.581
- C8U A41G C64G — lower, -6.15
- C8G G63C U92A — lower, -3.28
- C8G G60C A66C U131G — lower, -3.98
- C8G G44U G61A U78A C82G C115A U130A — higher, 0.635
- C8G C28G C56A C88A — lower, -3.47
- C8G C13G A16U C49A U129C — higher, -0.993
- C8G C80G G113U — lower, -5.81
- C8G G48A U96G U129A — higher, -0.823
- C8G C56U — higher, 0.485
- C8G G65U — lower, -5.38
- C8G C56U C97U — higher, 0.547
- C8G C31G — lower, -6.18
- C8G G63U A75U A83G C85A G122A — higher, -0.256
- C8G U9G G10U — higher, -0.244
- C8G G45U — within 0.2 log units, -1.39
- C8G C11A C72U C88U C97U G113U G127C — lower, -4.01
- C8G C49A U96A — higher, -0.377
- C8G A29U A68G C88U U125G — lower, -3.26
- C8G C34G C89A U96G A100U — lower, -7.34
- C8G C22U G23A C123G — lower, -7.38
- C8G G35U — lower, -3.78
- C8G C40A C72A C98U G127C — within 0.2 log units, -1.39
- C8G C20U G36C C49A A75G A100U — lower, -2.01
- C8G C20A U96A U131G — lower, -3.68
- C8G U30A — lower, -5.66
- C8G C22U C40G G120A C124A — lower, -2.61
- C8G A29U G60A G77C — lower, -2.46
- C8G G17C C40U G61U U106A U131A — lower, -4.28
- C8G C11G A24G C40U C56U C94U — lower, -2.88
- C8G C15U C22U — lower, -4.73
- C8G A100U C115U — lower, -2.51
